The target in data set [1] is T1, MotA, full length (wild type) (bacteriophage T4, UniProt P22915 1-211).
T1 sequence (looked up): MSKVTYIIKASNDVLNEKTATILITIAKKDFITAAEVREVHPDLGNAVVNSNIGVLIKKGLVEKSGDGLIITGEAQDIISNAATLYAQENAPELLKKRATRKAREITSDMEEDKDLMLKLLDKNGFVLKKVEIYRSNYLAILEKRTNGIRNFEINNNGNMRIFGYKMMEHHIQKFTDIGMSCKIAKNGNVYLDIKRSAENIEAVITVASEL
In words: NMR titration.

The target of the next data set is T2, AsiA (bacteriophage T4, UniProt P32267 1-90).
T2 sequence (looked up): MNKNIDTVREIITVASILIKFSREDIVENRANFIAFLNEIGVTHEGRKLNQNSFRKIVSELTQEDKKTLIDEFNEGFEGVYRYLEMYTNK
In words: NMR titration.

In data set [2] the target is T1, MotA, full length (wild type). In words: fluorescence polarisation. In general terms: Polarisation of emitted light reports the rotation of a fluorescent probe.
A further data set addresses T3, MotA S80R, full length (bacteriophage T4, UniProt P22915 1-211, S80R).
T3 sequence (looked up): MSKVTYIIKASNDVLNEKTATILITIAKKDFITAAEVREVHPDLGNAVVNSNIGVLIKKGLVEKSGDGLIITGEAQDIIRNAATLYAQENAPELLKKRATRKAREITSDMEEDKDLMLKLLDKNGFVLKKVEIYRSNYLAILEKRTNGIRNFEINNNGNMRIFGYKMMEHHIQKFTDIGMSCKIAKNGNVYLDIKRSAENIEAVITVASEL
In words: fluorescence polarisation.

For the next data set, the target named is T4, MotA D43K, full length (bacteriophage T4, UniProt P22915 1-211, D43K).
T4 sequence (looked up): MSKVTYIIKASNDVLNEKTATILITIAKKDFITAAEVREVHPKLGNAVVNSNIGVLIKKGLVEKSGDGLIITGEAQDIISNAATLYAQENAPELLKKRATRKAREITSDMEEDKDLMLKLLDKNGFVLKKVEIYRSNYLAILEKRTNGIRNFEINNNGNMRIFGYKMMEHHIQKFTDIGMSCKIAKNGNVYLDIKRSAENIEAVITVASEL
In words: fluorescence polarisation.

The target of the next data set is T5, MotA K59E, full length (bacteriophage T4, UniProt P22915 1-211, K59E).
T5 sequence (looked up): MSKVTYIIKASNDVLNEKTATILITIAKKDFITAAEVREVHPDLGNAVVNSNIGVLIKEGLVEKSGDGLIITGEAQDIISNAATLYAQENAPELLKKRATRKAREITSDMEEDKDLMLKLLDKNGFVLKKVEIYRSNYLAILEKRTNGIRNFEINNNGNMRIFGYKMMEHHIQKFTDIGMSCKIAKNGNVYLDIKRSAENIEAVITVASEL
In words: fluorescence polarisation.

In a further data set the target is T6, MotA D67K, full length (bacteriophage T4, UniProt P22915 1-211, D67K).
T6 sequence (looked up): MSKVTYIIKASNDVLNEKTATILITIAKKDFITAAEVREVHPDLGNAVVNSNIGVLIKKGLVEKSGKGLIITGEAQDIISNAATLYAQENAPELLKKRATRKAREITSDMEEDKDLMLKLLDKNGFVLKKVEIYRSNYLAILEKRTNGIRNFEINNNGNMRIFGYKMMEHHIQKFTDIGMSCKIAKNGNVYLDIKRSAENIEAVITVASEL
In words: fluorescence polarisation.

Another data set deals with T7, MotA K3E, full length (bacteriophage T4, UniProt P22915 1-211, K3E).
T7 sequence (looked up): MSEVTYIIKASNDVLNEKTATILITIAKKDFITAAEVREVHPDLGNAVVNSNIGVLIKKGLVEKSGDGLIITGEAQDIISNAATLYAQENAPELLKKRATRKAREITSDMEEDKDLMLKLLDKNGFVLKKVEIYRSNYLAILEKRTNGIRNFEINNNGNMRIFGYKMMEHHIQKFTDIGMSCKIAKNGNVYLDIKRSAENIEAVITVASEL
In words: fluorescence polarisation.

In the next data set the target is T8, MotA K28E, full length (bacteriophage T4, UniProt P22915 1-211, K28E).
T8 sequence (looked up): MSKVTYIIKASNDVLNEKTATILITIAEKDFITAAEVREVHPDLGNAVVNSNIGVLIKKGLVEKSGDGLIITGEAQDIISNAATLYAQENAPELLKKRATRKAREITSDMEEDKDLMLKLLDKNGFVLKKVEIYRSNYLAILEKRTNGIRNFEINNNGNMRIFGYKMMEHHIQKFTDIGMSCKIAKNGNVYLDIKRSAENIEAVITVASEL
In words: fluorescence polarisation.

The next data set deals with T9, MotA Q76R, full length (bacteriophage T4, UniProt P22915 1-211, Q76R).
T9 sequence (looked up): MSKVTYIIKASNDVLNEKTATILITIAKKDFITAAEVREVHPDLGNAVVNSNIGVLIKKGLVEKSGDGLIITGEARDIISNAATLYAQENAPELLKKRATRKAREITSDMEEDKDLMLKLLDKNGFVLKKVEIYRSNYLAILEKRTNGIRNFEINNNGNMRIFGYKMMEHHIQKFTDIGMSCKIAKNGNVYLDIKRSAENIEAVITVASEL
In words: fluorescence polarisation.

The next data set concerns the target T10, MotA wild type (bacteriophage T4, UniProt P22915 1-211).
T10 sequence: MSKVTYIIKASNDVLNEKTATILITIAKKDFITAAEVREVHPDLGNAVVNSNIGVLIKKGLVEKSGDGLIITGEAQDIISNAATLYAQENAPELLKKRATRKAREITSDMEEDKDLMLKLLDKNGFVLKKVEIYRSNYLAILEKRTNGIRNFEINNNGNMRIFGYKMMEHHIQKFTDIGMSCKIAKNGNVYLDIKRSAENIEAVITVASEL
In words: EMSA.

Where no end group is shown, it is not given here. The star is where a group is joined. FITC = O=C1OC2(c3ccc(O)cc3Oc3cc(O)ccc32)c2ccc(NC(=S)*)cc21

We go through 4 molecules from paper PMC2631437 (Molecular microbiology, 2008).

B1: AsiA/σ4 complex (preformed binary complex of AsiA and σ^70 region 4, residues 533 to 613) (complex, bacteriophage T4 | E. coli)
chain 1: MNKNIDTVREIITVASILIKFSREDIVENRANFIAFLNEIGVTHEGRKLNQNSFRKIVSELTQEDKKTLIDEFNEGFEGVYRYLEMYTNK
chain 2: DSATTESLRAATHDVLAGLTAREAKVLRMRFGIDMNTDYTLEEVGKQFDVTRERIRQIEAKALRKLRHPSRSEVLRSFLDD
For B1, the binding result in [1] is reported as “binds”.

B2: σ4 (σ^70 region 4, residues 533 to 613) (domain or fragment, E. coli, UniProt P00579 533-613, looked up)
chain: DSATTESLRAATHDVLAGLTAREAKVLRMRFGIDMNTDYTLEEVGKQFDVTRERIRQIEAKALRKLRHPSRSEVLRSFLDD
As to B2, the binding result (in data set [1]; with AsiA) was “binds” in each case.

B3: fluorescein-tagged σ4-H5 peptide (σ^70 residues 601-613) (peptide, UniProt P00579 601-613, looked up)
peptide: {FITC}-PSRSEVLRSFLDD
For the molecule B3, the dissociation constant (Kd) – broadly, the constant that tells how readily two partners part at equilibrium – in [2] was 15.9 ± 1.3 µM; with MotA S80R, full length, 44.7 ± 5 µM; with MotA D43K, full length, 12 ± 1 µM; with MotA K59E, full length, 10 ± 1 µM; with MotA D67K, full length, 24.3 ± 0.1 µM; with MotA K3E, full length, above 300 µM. The equilibrium dissociation constant (Kd) in the data set with MotA K28E, full length was above 300 µM; in the data set with MotA Q76R, full length, 39.1 ± 5 µM.

B4: 21 bp MotA box DNA (dsDNA)
DNA 1: GAATTATTTGCTTTAGATTAC
DNA 2: GTAATCTAAAGCAAATAATTC
Molecule B4 showed a Kd in the data set with MotA wild type of around 0.6 µM.
